Data: PMC11621822
pEC50: −log10 of the molar value.

Biological target: recombinant heat shock protein 70 cognate 3 (Hsc70-3), protein encoded by AAEL017349 (Aedes aegypti)
Test: ELISA

## recombinant E protein Receptor (EPrRec), protein encoded by AAEL011180 (natural protein)
  pEC50: 7.15
